# Results from IntAct's records for PubMed 16401726.
# B1: UV excision repair protein RAD23 (Saccharomyces cerevisiae), P32628 (parent)
# chain: MVSLTFKNFKKEKVPLDLEPSNTILETKTKLAQSISCEESQIKLIYSGKVLQDSKTVSECGLKDGDQVVFMVSQKKSTKTKVTEPPIAPESATTPGRENSTEASPSTDASAAPAATAPEGSQPQEEQTATTERTESASTPGFVVGTERNETIERIMEMGYQREEVERALRAAFNNPDRAVEYLLMGIPENLRQPEPQQQTAAAAEQPSTAATTAEQPAEDDLFAQAAQGGNASSGALGTTGGATDAAQGGPPGSIGLTVEDLLSLRQVVSGNPEALAPLLENISARYPQLREHIMANPEVFVSMLLEAVGDNMQDVMEGADDMVEGEDIEVTGEAAAAGLGQGEGEGSFQVDYTPEDDQAISRLCELGFERDLVIQVYFACDKNEEAAANILFSDHAD
# partner: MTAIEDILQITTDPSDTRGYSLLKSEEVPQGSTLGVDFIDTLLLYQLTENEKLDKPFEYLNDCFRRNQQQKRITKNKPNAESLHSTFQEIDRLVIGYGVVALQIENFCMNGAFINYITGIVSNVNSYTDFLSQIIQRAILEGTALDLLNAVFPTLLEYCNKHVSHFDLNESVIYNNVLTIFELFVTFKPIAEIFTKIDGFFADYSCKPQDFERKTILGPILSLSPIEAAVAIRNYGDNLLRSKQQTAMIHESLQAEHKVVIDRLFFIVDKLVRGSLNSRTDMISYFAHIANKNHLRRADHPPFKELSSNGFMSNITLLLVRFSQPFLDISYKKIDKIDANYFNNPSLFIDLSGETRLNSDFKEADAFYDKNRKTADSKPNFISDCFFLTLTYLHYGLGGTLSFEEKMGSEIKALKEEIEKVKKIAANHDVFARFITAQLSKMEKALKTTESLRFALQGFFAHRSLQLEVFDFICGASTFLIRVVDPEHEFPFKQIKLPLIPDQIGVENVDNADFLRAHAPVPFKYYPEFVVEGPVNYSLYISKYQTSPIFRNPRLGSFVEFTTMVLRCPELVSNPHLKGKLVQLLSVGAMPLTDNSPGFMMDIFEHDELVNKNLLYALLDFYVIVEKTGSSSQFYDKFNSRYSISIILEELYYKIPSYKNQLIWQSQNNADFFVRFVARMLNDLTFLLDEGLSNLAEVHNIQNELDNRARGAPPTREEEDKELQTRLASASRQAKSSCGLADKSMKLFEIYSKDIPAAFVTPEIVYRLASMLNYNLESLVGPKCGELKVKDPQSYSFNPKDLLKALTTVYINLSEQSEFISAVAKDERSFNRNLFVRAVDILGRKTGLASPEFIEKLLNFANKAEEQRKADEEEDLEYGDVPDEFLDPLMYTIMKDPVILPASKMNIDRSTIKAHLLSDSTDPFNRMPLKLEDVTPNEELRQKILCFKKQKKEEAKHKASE
# B2: UV excision repair protein RAD23 (Saccharomyces cerevisiae), P32628 (parent)
# chain: B1 chain
# partner: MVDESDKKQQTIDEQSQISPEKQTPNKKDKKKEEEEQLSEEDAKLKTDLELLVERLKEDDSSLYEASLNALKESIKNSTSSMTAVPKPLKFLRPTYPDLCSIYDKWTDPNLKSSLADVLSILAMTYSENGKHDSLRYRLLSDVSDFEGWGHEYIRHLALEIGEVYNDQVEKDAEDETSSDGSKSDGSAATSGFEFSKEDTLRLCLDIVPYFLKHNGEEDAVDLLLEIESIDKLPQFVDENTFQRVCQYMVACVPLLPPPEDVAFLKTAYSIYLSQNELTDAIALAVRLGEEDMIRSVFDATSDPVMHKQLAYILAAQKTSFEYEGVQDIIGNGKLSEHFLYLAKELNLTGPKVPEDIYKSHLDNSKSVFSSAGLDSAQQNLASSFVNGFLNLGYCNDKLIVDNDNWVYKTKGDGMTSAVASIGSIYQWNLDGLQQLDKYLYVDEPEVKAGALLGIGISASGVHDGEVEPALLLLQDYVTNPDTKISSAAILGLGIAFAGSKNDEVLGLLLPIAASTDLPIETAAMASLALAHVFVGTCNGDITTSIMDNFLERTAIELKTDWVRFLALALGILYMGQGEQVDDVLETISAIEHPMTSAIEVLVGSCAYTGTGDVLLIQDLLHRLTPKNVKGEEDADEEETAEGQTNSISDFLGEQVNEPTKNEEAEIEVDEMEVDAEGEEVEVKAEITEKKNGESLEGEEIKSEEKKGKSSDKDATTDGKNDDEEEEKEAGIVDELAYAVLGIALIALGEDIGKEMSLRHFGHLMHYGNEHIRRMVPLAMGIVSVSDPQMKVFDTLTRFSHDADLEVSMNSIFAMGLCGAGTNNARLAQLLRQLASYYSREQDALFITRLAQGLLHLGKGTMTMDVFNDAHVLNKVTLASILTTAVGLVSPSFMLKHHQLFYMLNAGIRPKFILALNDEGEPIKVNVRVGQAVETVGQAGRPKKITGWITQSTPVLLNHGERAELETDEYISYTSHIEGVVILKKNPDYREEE
# B3: "Peptide-N(4)-(N-acetyl-beta-glucosaminyl)asparagine amidase" (Saccharomyces cerevisiae), Q02890 (parent)
# chain: MGEVYEKNNIDFDSIAKMLLIKYKDFILSKFKKAAPVENIRFQNLVHTNQFAQGVLGQSQHLCTVYDNPSWHSIVLETLDLDLIYKNVDKEFAKDGHAEGENIYTDYLVKELLRYFKQDFFKWCNKPDCNHCGQNTSENMTPLGSQGPNGEESKFNCGTVEIYKCNRCGNITRFPRYNDPIKLLETRKGRCGEWCNLFTLILKSFGLDVRYVWNREDHVWCEYFSNFLNRWVHVDSCEQSFDQPYIYSINWNKKMSYCIAFGKDGVVDVSKRYILQNELPRDQIKEEDLKFLCQFITKRLRYSLNDDEIYQLACRDEQEQIELIRGKTQETKSESVSAASKSSNRGRESGSADWKAQRGEDGK
# partner: B1 chain
# B4: UV excision repair protein RAD23 (Saccharomyces cerevisiae), P32628 (parent)
# chain: B1 chain
# partner: B3 chain
# B5: UV excision repair protein RAD23 (Saccharomyces cerevisiae), P32628 (parent)
# chain: B1 chain
# partner: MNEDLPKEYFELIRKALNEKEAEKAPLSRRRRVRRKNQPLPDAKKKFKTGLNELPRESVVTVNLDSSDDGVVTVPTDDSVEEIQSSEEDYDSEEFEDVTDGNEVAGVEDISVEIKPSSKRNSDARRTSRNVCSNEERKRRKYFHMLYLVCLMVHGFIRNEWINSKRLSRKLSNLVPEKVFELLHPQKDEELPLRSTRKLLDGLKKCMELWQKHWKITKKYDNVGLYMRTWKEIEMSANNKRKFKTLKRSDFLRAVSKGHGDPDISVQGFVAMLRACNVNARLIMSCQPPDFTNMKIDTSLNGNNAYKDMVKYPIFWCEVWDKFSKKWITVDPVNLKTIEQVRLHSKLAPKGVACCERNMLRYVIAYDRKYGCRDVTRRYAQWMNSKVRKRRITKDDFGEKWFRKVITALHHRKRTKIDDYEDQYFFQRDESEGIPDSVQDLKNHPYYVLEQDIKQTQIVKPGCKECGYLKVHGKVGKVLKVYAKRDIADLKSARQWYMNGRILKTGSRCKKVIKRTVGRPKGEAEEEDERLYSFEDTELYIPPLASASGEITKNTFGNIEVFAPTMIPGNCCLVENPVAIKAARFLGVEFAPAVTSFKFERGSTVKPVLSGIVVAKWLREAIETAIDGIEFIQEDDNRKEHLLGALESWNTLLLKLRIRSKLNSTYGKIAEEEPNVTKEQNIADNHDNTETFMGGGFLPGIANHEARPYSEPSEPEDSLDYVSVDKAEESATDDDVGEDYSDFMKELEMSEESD
# Variants of: B1
# Conditions: with ufd2_yeast UFD2, P54860
row,Variant,effect of a mutation on the interaction
1,MVSLTFKNFKKEKVPLDLEPSNTILETKTKLAQSISCEESQIKLIYSGKVLQDSKTVSECGLKDGDQVVFMVSQKKSTKTKVTEPPIAPESATTPGRENSTEASPSTDASAAPAATAPEGSQPQEEQTATTERTESASTPGFVVGTERNETIERIMEMGYQREEVERALRAAFNNPDRAVEYLLMGIPENLRQPEPQQQTAAAAEQPSTAATTAEQPAEDDLFAQAAQGGNASSGALGTTGGATDAAQGGPPGSIGLTVEDLLSLRQVVSGNPEAQAPLLENISARYPQLREHIMANPEVFVSMLLEAVGDNMQDVMEGADDMVEGEDIEVTGEAAAAGLGQGEGEGSFQVDYTPEDDQAISRLCELGFERDLVIQVYFACDKNEEAAANILFSDHAD [L276Q],with no effect

# Variants of: B2
# Conditions: with rpn1_yeast RPN1, P38764
row,Variant,effect of a mutation on the interaction
1,MVSLTFKNFKKEKVPLDLEPSNTILETKTKLAQSISCEESQIKLIYSGKVLQDSKTVSECGLKDGDQVVFMVSQKKSTKTKVTEPPIAPESATTPGRENSTEASPSTDASAAPAATAPEGSQPQEEQTATTERTESASTPGFVVGTERNETIERIMEMGYQREEVERALRAAFNNPDRAVEYALMGIPENLRQPEPQQQTAAAAEQPSTAATTAEQPAEDDLFAQAAQGGNASSGALGTTGGATDAAQGGPPGSIGLTVEDLLSLRQVVSGNPEALAPLLENISARYPQLREHIMANPEVFVSMLLEAVGDNMQDVMEGADDMVEGEDIEVTGEAAAAGLGQGEGEGSFQVDYTPEDDQAISRLCELGFERDLVIQVYFACDKNEEAAANIAFSDHAD [L183A;L392A],with no effect
2,MVSLTFKNFKKEKVPLDLEPSNTILETKTKLAQSISCEESQIKLIYSGKVLQDSKTVSECGLKDGDQVVFMVSQKKSTKTKVTEPPIAPESATTPGRENSTEASPSTDASAAPAATAPEGSQPQEEQTATTERTESASTPGFVVGTERNETIERIMEMGYQREEVERALRAAFNNPDRAVEYLLMGIPENLRQPEPQQQTAAAAEQPSTAATTAEQPAEDDLFAQAAQGGNASSGALGTTGGATDAAQGGPPGSIGLTVEDLLSLRQVVSGNPEAQAPLLENISARYPQLREHIMANPEVFVSMLLEAVGDNMQDVMEGADDMVEGEDIEVTGEAAAAGLGQGEGEGSFQVDYTPEDDQAISRLCELGFERDLVIQVYFACDKNEEAAANILFSDHAD [L276Q],with no effect

# Variants of: B3
# Conditions: with rad23_yeast RAD23, P32628
row,Variant,effect of a mutation on the interaction
1,MGEVYEKNNIDFDSIAKMLLIKYKDFILSKFKKAAPVENIRFQNLVHTNQFAQGVLGQSQHLCTVYDNPSWHSIVLETLDLDLIYKNVDKEFAKDGHAEGENIYTDYLVKELLRYFKQDFFKWCNKPDCNHCGQNTSENMTPLGSQGPNGEESKFNCGTVEIYKCNRCGNITRFPRYNDPIKLLETRKGRCGEWCNLFTLILKSFGLDVRYVWNREDYVWCEYFSNFLNRWVHVDSCEQSFDQPYIYSINWNKKMSYCIAFGKDGVVDVSKRYILQNELPRDQIKEEDLKFLCQFITKRLRYSLNDDEIYQLACRDEQEQIELIRGKTQETKSESVSAASKSSNRGRESGSADWKAQRGEDGK [H218Y],with no effect

# Variants of: B4
# Conditions: with png1_yeast PNG1, Q02890
row,Variant,effect of a mutation on the interaction
1,MVSLTFKNFKKEKVPLDLEPSNTILETKTKLAQSISCEESQIKLIYSGKVLQDSKTVSECGLKDGDQVVFMVSQKKSTKTKVTEPPIAPESATTPGRENSTEASPSTDASAAPAATAPEGSQPQEEQTATTERTESASTPGFVVGTERNETIERIMEMGYQREEVERALRAAFNNPDRAVEYALMGIPENLRQPEPQQQTAAAAEQPSTAATTAEQPAEDDLFAQAAQGGNASSGALGTTGGATDAAQGGPPGSIGLTVEDLLSLRQVVSGNPEALAPLLENISARYPQLREHIMANPEVFVSMLLEAVGDNMQDVMEGADDMVEGEDIEVTGEAAAAGLGQGEGEGSFQVDYTPEDDQAISRLCELGFERDLVIQVYFACDKNEEAAANIAFSDHAD [L183A;L392A],with no effect
2,MVSLTFKNFKKEKVPLDLEPSNTILETKTKLAQSISCEESQIKLIYSGKVLQDSKTVSECGLKDGDQVVFMVSQKKSTKTKVTEPPIAPESATTPGRENSTEASPSTDASAAPAATAPEGSQPQEEQTATTERTESASTPGFVVGTERNETIERIMEMGYQREEVERALRAAFNNPDRAVEYLLMGIPENLRQPEPQQQTAAAAEQPSTAATTAEQPAEDDLFAQAAQGGNASSGALGTTGGATDAAQGGPPGSIGLTVEDLLSLRQVVSGNPEAQAPLLENISARYPQLREHIMANPEVFVSMLLEAVGDNMQDVMEGADDMVEGEDIEVTGEAAAAGLGQGEGEGSFQVDYTPEDDQAISRLCELGFERDLVIQVYFACDKNEEAAANILFSDHAD [L276Q],disrupting interaction strength

# Variants of: B5
# Conditions: with rad4_yeast RAD4, P14736
row,Variant,effect of a mutation on the interaction
1,MVSLTFKNFKKEKVPLDLEPSNTILETKTKLAQSISCEESQIKLIYSGKVLQDSKTVSECGLKDGDQVVFMVSQKKSTKTKVTEPPIAPESATTPGRENSTEASPSTDASAAPAATAPEGSQPQEEQTATTERTESASTPGFVVGTERNETIERIMEMGYQREEVERALRAAFNNPDRAVEYLLMGIPENLRQPEPQQQTAAAAEQPSTAATTAEQPAEDDLFAQAAQGGNASSGALGTTGGATDAAQGGPPGSIGLTVEDLLSLRQVVSGNPEAQAPLLENISARYPQLREHIMANPEVFVSMLLEAVGDNMQDVMEGADDMVEGEDIEVTGEAAAAGLGQGEGEGSFQVDYTPEDDQAISRLCELGFERDLVIQVYFACDKNEEAAANILFSDHAD [L276Q],with no effect
